# B1: Ephrin-A3: Ephrin ligand protein from R & D systems (protein, UniProt P52797 23-214, looked up)
# Ephrin-A3: QGPGGALGNRHAVYWNSSNQHLRREGYTVQVNVNDYLDIYCPHYNSSGVGPGAGPGPGGGAEQYVLYMVSRNGYRTCNASQGFKRWECNRPHAPHSPIKFSEKFQRYSAFSLGYEFHAGHEYYYISTPTHNLHWKCLRMKVFVCCASTSHSGEKPVPTLPQFTMGPNVKINVLEDFEGENPQVPKLEKSISG
# Tested on: cells of the human embryonic stem cell line H1 differentiated to stage 5
# Test: Immunostaining for insulin protein expression at the end of Stage 5
# Type: cell-based
# Details: 50 or 100 ng/ml for three days at stage 5, immunostaining vs control; FIG. 2, FIG. 3
# Protocol: Cells of the human embryonic stem cell line H1 (hESC H1, passage 40) were seeded as single cells at 1×10^5 cells/cm^2 on MATRIGEL™ (1:30 dilution; BD Biosciences, NJ)-coated dishes in mTeSR®1 media supplemented with 10 μM of Y27632. Forty-eight hours post seeding, cultures were washed in incomplete PBS (phosphate buffered saline without Mg or Ca). Cultures were differentiated into pancreatic endoderm/endocrine lineages as follows: • a) Stage 1 (Definitive Endoderm (DE)—3 days): Cells were cultured for one day in stage 1 media (see Example 1, above). Cells were then cultured for an additional day in MCDB-131 medium supplemented with 0.1% fatty acid-free BSA, 0.0012 g/ml sodium bicarbonate, 1× GlutaMax™, 4.5 mM D-Glucose, 100 ng/ml GDF8, and 0.1 μM MCX compound. […]
molecule,measurement,value
B1,protein expression of insulin,significantly enhanced
